In US20200109188A1:

B1: Antibody 5 (antibody, V domains shown)
VH: QVQLQQSGPGLVKPSQTLSLTCAISGDRVSSNSAVWNWIRQSPSRGLEWLGRTYYRSKWYYDYAESVKSRIVIDPDTSKNQVSLQLNSVTPEDSAIYYCARGGHITVFGLNIDAYDIWGQGAMVTVSS
VL: DIQMTQSPSSLSASVGDRVTISCRAQSLSSYLHWYQQKPGQPPKLLIYAATTLQSGVPSRFSGSGSGTDFTLTISTFQAEDVATYYCQQSRTFGQGTKVEIK
B2: Antibody 6 (antibody, V domains shown)
VH: QVQLQQSGPGLVKPSQTLSLTCAISGDRVSSNSAVWNWIRQSPSRGLEWLGRTYYRSKWYYDYAESVKSRIVIDPDTSKNQVSLQLNSVTPEDSAIYYCARGGHITEFGLNIDAYDIWGQGAMVTVSS
VL: DIQMTQSPSSLSASVGDRVTISCRAQSLSSYLHWYQQKPGQPPKLLIYAATTLQSGVPSRFSGSGSGTDFTLTISTFQAEDVATYYCQQSRTFGQGTKVEIK
B3: Antibody 8 (antibody, V domains shown)
VH: QVQLQQSGPGLVKPSQTLSLTCVISGDTVSSNRATWNWMRQSPLRGLEWLGRTYYRSKWYNDYAVSVKSRVVINPDTSKNQVSLQLNTVTPDDSGVYFCARGGHITVFGVNIDAFDIWGLGTKVTVSS
VL: DIQMTQSPSSLSASVGDRVTISCRASQRLNSYLHWYQQTPGQAPKLLIYATSTLQSGVSPRFSGSGSGTDFTLTISSLQPEDVATYYCQLSRTFGHGTKVEIK
B4: Antibody 10 (antibody, V domains shown)
VH: QVQLQQSGPGLVKPSQTLSLTCAISGDSVSSNSATWNWIRQSPSRGLEWLGRTYYRSKWYNDYADFLKRRITINPDTSNNEVSLRLTSVTPDDTALYYCARGGHITVFGVNIDAFDVWGQGTMVTVSS
VL: DIQMTQSPSSLSASVGDRITISCRTSQSLRSYLHWYQQKPGKAPKLLIYASSTLQSGVPSRFSGSGSGTDFTLTISNLQPEDFATYYCQLSRTFGQGTKVEIK

Key:
Assay in all cases: ELISA, rHA coated
[1] = molecular target: recombinant HA subtype H6 (A/teal/HK/W312/97 (H6N1)) (influenza A virus)
[2] = molecular target: recombinant HA subtype H5 (A/Vietnam/1203/04 (H5N1)) (influenza A virus)
[3] = molecular target: recombinant HA subtype H3 (A/Perth/16/09 (H3N2)) (influenza A virus)
[4] = molecular target: recombinant HA subtype H9 (A/chicken/HK/G9/97 (H9N2)) (influenza A virus)
[5] = molecular target: recombinant HA subtype H7 (A/Netherlands/219/03 (H7N7)) (influenza A virus)
[6] = molecular target: recombinant HA subtype H2 (A/Swine/MO/06 (H2N3)) (influenza A virus)

| Binder | EC50 [1] | EC50 [2] | EC50 [3] | EC50 [4] | EC50 [5] | EC50 [6] |
| --- | --- | --- | --- | --- | --- | --- |
| B1 | 0.047 mg/L | 0.041 mg/L | 0.03 mg/L | > 6 mg/L | 0.024 mg/L | 0.048 mg/L |
| B2 | 0.214 mg/L | 0.256 mg/L | 0.064 mg/L | > 6 mg/L | 0.116 mg/L | 0.213 mg/L |
| B3 | 0.091 mg/L | 0.044 mg/L | 0.067 mg/L | > 6 mg/L | 0.015 mg/L | 0.058 mg/L |
| B4 | 0.097 mg/L | 0.058 mg/L | 0.049 mg/L | 2.7 mg/L | 0.034 mg/L | 0.075 mg/L |
